Source: patent US20200377590A1 (Hoffmann-La Roche, published 2020)

T1: CD81 (UniProt P60033 1-236, limits assumed)
T1 construct: whole, on cells; also called CD81 receptor
T1 sequence (looked up): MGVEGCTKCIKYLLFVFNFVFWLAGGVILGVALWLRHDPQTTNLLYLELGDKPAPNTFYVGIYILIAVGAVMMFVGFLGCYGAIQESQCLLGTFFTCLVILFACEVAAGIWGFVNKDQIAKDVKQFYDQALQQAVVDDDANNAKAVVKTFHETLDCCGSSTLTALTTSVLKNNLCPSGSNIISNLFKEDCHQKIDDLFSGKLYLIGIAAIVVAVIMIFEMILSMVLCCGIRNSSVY

B1: CD81K13 HC 5b-hVH_1_69 / LC 1c-hVK_3_15 (antibody, V domains shown)
VH: QVQLVQSGAELVKPGSSVKVSCKASGFNFKDSYLHWVRQAPGQGLEWMGRIDTGNGNVKFDPKFQGRVTITTDESTSTAYMELSSLRSEDTAVYYCVPYGYGFHSWGQGTLVTVSS
VL: EIVMTQSPATLSVSPGERATLSCRASENIYRTLAWYQQKPGQAPRLLIYGATTLADGIPARFSGSGSGTEFTLTISSLQSEDFGVYYCQHFWGTPWTFGQGTKVEIK
notes: human constant region
B2: CD81K13 HC 05-hVH_1_69 / LC 05-hVK_1_39 (antibody, V domains shown)
VH: QVQLVQSGAEVKKPGSSVKVSCKASGFNFKDSYLHWVRQAPGQGLEWMGRIDTGNGNVKFDPKFQGRVTITTDESTSTAYMELSSLRSEDTAVYYCVPYGYGFHSWGQGTLVTVSS
VL: DIQMTQSPSSLSASVGDRVTITCRASENIYRTLAWYQQKPGKAPKLLIYAATTLASGVPSRFSGSGSGTDFTLTISSLQPEDFATYYCQHFWGTPWTFGQGTKVEIK
notes: human constant region
B3: CD81K13 HC 07-hVH_1_3 / LC 1c-hVK_3_15 (antibody, V domains shown)
VH: QVQLVQSGAEVKKPGASVKVSCKASGYTFKDSYLHWVRQAPGQGLEWMGRIDTGNGNVKFDPKFQGRVTITTDTSASTAYMELSSLRSEDTAVYYCAPYGYGFHSWGQGTLVTVSS
VL: EIVMTQSPATLSVSPGERATLSCRASENIYRTLAWYQQKPGQAPRLLIYGATTLADGIPARFSGSGSGTEFTLTISSLQSEDFGVYYCQHFWGTPWTFGQGTKVEIK
notes: human constant region
B4: CD81K13 HC 5b-hVH_1_69-GA / LC 01-hVK_3_15 (antibody, V domains shown)
VH: QVQLVQSGAELVKPGSSVKVSCKASGFNFKDSYLHWVRQAPGQGLEWMGRIDTGNGNVKFDPKFQGRVTITTDESTSTAYMELSSLRSEDTAVYYCVPYGYGFHSWGQGTLVTVSS
VL: EIVMTQSPATLSVSPGERATLSCRASENIYRTLAWYQQKPGQAPRLLIYGATTRATGIPARFSGSGSGTEFTLTISSLQSEDFGVYYCQHFWGTPWTFGQGTKVEIK
notes: human constant region
B5: CD81K13 HC 5b-hVH_1_69-GA / LC 1b-hVK_3_15 (antibody, V domains shown)
VH: QVQLVQSGAELVKPGSSVKVSCKASGFNFKDSYLHWVRQAPGQGLEWMGRIDTGNGNVKFDPKFQGRVTITTDESTSTAYMELSSLRSEDTAVYYCVPYGYGFHSWGQGTLVTVSS
VL: EIVMTQSPATLSVSPGERATLSCRASENIYRTLAWYQQKPGQAPRLLIYGATTLADGIPARFSGSGSGTEFTLTISSLQSEDFAVYYCQHFWGTPWTFGQGTKVEIK
notes: human constant region
B6: CD81K13 HC 03-hVH_1_69 / LC 03-hVK_1_9 (antibody, V domains shown)
VH: QVQLVQSGAEVKKPGSSVKVSCKASGFNFKDSYLHWVRQAPGQGLEWMGRIDTGNGNVKYAQKFQGRVTITADESTSTAYMELSSLRSEDTAVYYCAPYGYGFHSWGQGTLVTVSS
VL: DIQLTQSPSFLSASVGDRVTITCRASENIYRTLAWYQQKPGKAPKLLIYAATTLASGVPSRFSGSGSGTEFTLTISSLQPEDFATYYCQHFWGTPWTFGQGTKVEIK
notes: human constant region
B7: CD81K13 HC 03-hVH_1_69 / LC 5b-hVK_1_39 (antibody, V domains shown)
VH: QVQLVQSGAEVKKPGSSVKVSCKASGFNFKDSYLHWVRQAPGQGLEWMGRIDTGNGNVKYAQKFQGRVTITADESTSTAYMELSSLRSEDTAVYYCAPYGYGFHSWGQGTLVTVSS
VL: DIQMTQSPSSLSASVGDRVTITCRASENIYRTLAWYQQKPGKAPKLLIYGATTLADGVPSRFSGSGSGTDFTLTISSLQPEDFATYYCQHFWGTPWTFGQGTKVEIK
notes: human constant region
B8: CD81K13 HC 06-hVH_1_3 / LC 1b-hVK_3_15 (antibody, V domains shown)
VH: QVQLVQSGAEVKKPGASVKVSCKASGYTFKDSYLHWVRQAPGQRLEWMGRIDTGNGNVKFDPKFQGRVTITTDTSASTAYMELSSLRSEDTAVYYCAPYGYGFHSWGQGTLVTVSS
VL: EIVMTQSPATLSVSPGERATLSCRASENIYRTLAWYQQKPGQAPRLLIYGATTLADGIPARFSGSGSGTEFTLTISSLQSEDFAVYYCQHFWGTPWTFGQGTKVEIK
notes: human constant region
B9: CD81K13 HC 07-hVH_1_3 / LC 01-hVK_3_15 (antibody, V domains shown)
VH: QVQLVQSGAEVKKPGASVKVSCKASGYTFKDSYLHWVRQAPGQGLEWMGRIDTGNGNVKFDPKFQGRVTITTDTSASTAYMELSSLRSEDTAVYYCAPYGYGFHSWGQGTLVTVSS
VL: EIVMTQSPATLSVSPGERATLSCRASENIYRTLAWYQQKPGQAPRLLIYGATTRATGIPARFSGSGSGTEFTLTISSLQSEDFGVYYCQHFWGTPWTFGQGTKVEIK
notes: human constant region
B10: CD81K13 HC 03-hVH_1_69 / LC 04-hVK_1_9 (antibody, V domains shown)
VH: QVQLVQSGAEVKKPGSSVKVSCKASGFNFKDSYLHWVRQAPGQGLEWMGRIDTGNGNVKYAQKFQGRVTITADESTSTAYMELSSLRSEDTAVYYCAPYGYGFHSWGQGTLVTVSS
VL: DIQLTQSPSFLSASVGDRVTITCRASENIYRTLAWYQQKPGKAPKLLIYAATTLASGVPSRFSGSGSGTEFTLTISSLQPEDFGTYYCQHFWGTPWTFGQGTKVEIK
notes: human constant region
B11: CD81K13 HC 5b-hVH_1_69-GA / LC 1c-hVK_3_15 (antibody, V domains shown)
VH: QVQLVQSGAELVKPGSSVKVSCKASGFNFKDSYLHWVRQAPGQGLEWMGRIDTGNGNVKFDPKFQGRVTITTDESTSTAYMELSSLRSEDTAVYYCVPYGYGFHSWGQGTLVTVSS
VL: EIVMTQSPATLSVSPGERATLSCRASENIYRTLAWYQQKPGQAPRLLIYGATTLADGIPARFSGSGSGTEFTLTISSLQSEDFGVYYCQHFWGTPWTFGQGTKVEIK
notes: human constant region
B12: CD81K13 HC 03-hVH_1_69 / LC 05-hVK_1_39 (antibody, V domains shown)
VH: QVQLVQSGAEVKKPGSSVKVSCKASGFNFKDSYLHWVRQAPGQGLEWMGRIDTGNGNVKYAQKFQGRVTITADESTSTAYMELSSLRSEDTAVYYCAPYGYGFHSWGQGTLVTVSS
VL: DIQMTQSPSSLSASVGDRVTITCRASENIYRTLAWYQQKPGKAPKLLIYAATTLASGVPSRFSGSGSGTDFTLTISSLQPEDFATYYCQHFWGTPWTFGQGTKVEIK
notes: human constant region
B13: CD81K13 HC 06-hVH_1_3 / LC 01-hVK_3_15 (antibody, V domains shown)
VH: QVQLVQSGAEVKKPGASVKVSCKASGYTFKDSYLHWVRQAPGQRLEWMGRIDTGNGNVKFDPKFQGRVTITTDTSASTAYMELSSLRSEDTAVYYCAPYGYGFHSWGQGTLVTVSS
VL: EIVMTQSPATLSVSPGERATLSCRASENIYRTLAWYQQKPGQAPRLLIYGATTRATGIPARFSGSGSGTEFTLTISSLQSEDFGVYYCQHFWGTPWTFGQGTKVEIK
notes: human constant region
B14: CD81K13 HC 03-hVH_1_69 / LC 5b-hVK_1_39-GA (antibody, V domains shown)
VH: QVQLVQSGAEVKKPGSSVKVSCKASGFNFKDSYLHWVRQAPGQGLEWMGRIDTGNGNVKYAQKFQGRVTITADESTSTAYMELSSLRSEDTAVYYCAPYGYGFHSWGQGTLVTVSS
VL: DIQMTQSPSSLSASVGDRVTITCRASENIYRTLAWYQQKPGKAPKLLIYGATTLADGVPSRFSGSGSGTDFTLTISSLQPEDFATYYCQHFWGTPWTFGQGTKVEIK
notes: human constant region
B15: CD81K13 HC 07-hVH_1_3 / LC 1b-hVK_3_15 (antibody, V domains shown)
VH: QVQLVQSGAEVKKPGASVKVSCKASGYTFKDSYLHWVRQAPGQGLEWMGRIDTGNGNVKFDPKFQGRVTITTDTSASTAYMELSSLRSEDTAVYYCAPYGYGFHSWGQGTLVTVSS
VL: EIVMTQSPATLSVSPGERATLSCRASENIYRTLAWYQQKPGQAPRLLIYGATTLADGIPARFSGSGSGTEFTLTISSLQSEDFAVYYCQHFWGTPWTFGQGTKVEIK
notes: human constant region
B16: CD81K13 HC 06-hVH_1_3 / LC 1c-hVK_3_15 (antibody, V domains shown)
VH: QVQLVQSGAEVKKPGASVKVSCKASGYTFKDSYLHWVRQAPGQRLEWMGRIDTGNGNVKFDPKFQGRVTITTDTSASTAYMELSSLRSEDTAVYYCAPYGYGFHSWGQGTLVTVSS
VL: EIVMTQSPATLSVSPGERATLSCRASENIYRTLAWYQQKPGQAPRLLIYGATTLADGIPARFSGSGSGTEFTLTISSLQSEDFGVYYCQHFWGTPWTFGQGTKVEIK
notes: human constant region

The binders below were run against T1, CD81 (assay: cell ELISA;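 further: antibody binding to HuH7 cells expressing CD81 versus a CD81-negative HuH7 control line, bound antibody detected by secondary reagent, absorbance at 450 nm with 620 nm reference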).
Experimental: For the binding cell ELISA assay, HuH7-Rluc-H3 (positive cell line expressing CD81) and HuH7-Rluc-L1 (negative control cell line) were propagated in F-12 DMEM medium with 10% FCS at 37° C. and 5% CO₂. On day 1, the cells were trypsinized at approximately 90% confluence and resuspended at 4×10⁵ cells/mL. […] On day 2, the antibody samples to be tested were prepared in a separate polypropylene round bottom plate with a twofold desired concentration with a final volume of 120 μl. All of the assay samples were diluted in cell culture medium. […] After fixation, each well was washed 3 times with 200 μL PBS/0.05% Tween. The secondary incubation step for detection of bound anti-CD81 antibodies was performed for 2 h at room temperature on a reciprocal shaker. […] Each well was washed three times with 200 μL PBS/0.05% Tween to remove unbound antibodies. […] The absorbance was read using the ELISA Tecan reader at 450 nm with 620 nm reference wavelength.

In order of falling ELISA data:
1. B2  0.91
2. B11  0.794
3. B4  0.739
4. B1  0.701
5. B5  0.648
6. B14  0.552
7. B13  0.547
8. B7  0.546
9. B12  0.525
10. B9  0.459
11. B8  0.394
12. B15  0.367
13. B16  0.34
14. B3  0.337
15. B6  0.208
16. B10  0.188
